Experiment: yeast display, Sf9 membrane polyspecificity reagent, FACS + sequencing; frameworks hold sequencing errors
Method in brief: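 Genes from sorted yeast were amplified by colony PCR, read by MiSeq 2 × 250 sequencing and filtered on CDR length. These cells carried a synthetic nanobody library in Saccharomyces cerevisiae BJ5465 and were sorted by FACS into low and high (top ~1%) gates on anti-HA and streptavidin fluorescence. Polyreactivity is labelled according to the gate of origin.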

Q: With “QGQRVESGGGLVQAGGSLRLSCAASGSTFPWYAMGWYRQARGSERELVAGISEGGASTYYADSVKGRFTISRDNAKNTVYLQMNSLNPEDTAVYYCAADQVGAVYWVGEYGYWGQGTHVTVSS” as the sequence, how does the “polyreactivity (PSR sort gate)” value read?
A: low polyreactivity

Q: With “QIQLVESCGGLVQPGGSLRLSCAASGFTFYRYSRGWYRQAPGKERELVAPISTSGVSTYYADSVKGRFTISRDNAKNTVYLQMNSLKPEDTAVYYWAASAGPRASYYYWGQGTQVTVSS” as the sequence, how does the “polyreactivity (PSR sort gate)” value read?
A: high polyreactivity

Q: With “QIQLVESGGGIVQAGGSLRLSCAASGFIFNTYDMGWYRQAPGKEMELVAVITSGGTTNYADSVKGRFTISRDNAKNTVYLQINCLKPEDTAVYSCNRDSVLDPGNPKPYVFDYWGQGTQVTVSS” as the sequence, how does the “polyreactivity (PSR sort gate)” value read?
A: low polyreactivity

Q: With “QIQLVESGGGLVQAGGSLRLSCAASGFTFYYYVMGWYRQAPGKERELVAAISSRGGSTYYADSVKGRFTISRDNAKNTVYLQMNSLKPEDTAVYYCAATYWPYRPGYYYWGQGTQVTVSS” as the sequence, how does the “polyreactivity (PSR sort gate)” value read?
A: high polyreactivity

Q: Which “polyreactivity (PSR sort gate)” value does the source give for “QLHLVESAGGLVQAGGSLRLSCVYSGLTQPYAMGWYRHAPGKEREWVAGITCRGASTYYADSVKGRFTISRDNAKNTVYLQLNSLKPEDTAVYYCAARSTIQRRGYYGYRVGLSEYGYWGQGTQVTVSS” here?
A: low polyreactivity

Q: Which “polyreactivity (PSR sort gate)” value does the source give for “QLKHVESGGGLVQAGGSLRLSCAASVGTFGLNAMGRYRQAPGKERELVADIDGRGGSTYYADSVKGRFTISRDNAKNTVNLQMNTLKPEDTAVYYCAARAPFLSVPSELDYCGQGTQVTVSS” here?
A: low polyreactivity

Q: Which “polyreactivity (PSR sort gate)” value does the source give for “QLKLEESGGRLVQAGGSLRLSCASSGRTFTYYVMGCYRQAPGKERELVAAISDSGGSTYYADSVKGRFTISRDNAKNTVYLQMNSLKPEDTAVYYCATDSYWYRLREYNYWGQGTQVTVSS” here?
A: high polyreactivity

Q: With “QLQHVESGGGLVQAGGSLRLSCAGTGRIMWRNAMGWYRQAPGKEMELVAAITSGSRTSYADSVKGRFTISRDNSKNTVYLQMNSLKPEDTAVYYCARRSYGIYYRSADESWGQGTQVTVSS” as the sequence, how does the “polyreactivity (PSR sort gate)” value read?
A: high polyreactivity

Q: With “QLQLEESGGGLVQAGGSLRLSCAASANTIYQYAMGRYRQAPGKERELVAAIDWSGGSTYADSVKGRFTISRDNAKNTVYLQMNSLKPEDTAFYYCNASVKPSNVWSRGYDYWGQGTQVTVSS” as the sequence, how does the “polyreactivity (PSR sort gate)” value read?
A: low polyreactivity

Q: Which “polyreactivity (PSR sort gate)” value does the source give for “QLQLEESGGGLVQAGGSLRLSCAASGFIFYSNAMGWYRKAPGKERELVASIPGDGGTTYYADSVKGRFTISRDNAKNTVYLQMNSLKPEDTAFYYCAKDYIYRGYYTDFRYEDYEYWGQGTQVTVSS” here?
A: low polyreactivity

Q: For “QLQLEESGGGLVQAGGSLRLSCAPSGSILNIYAMGWYRQAPGKERELVAVITSGTNTNYAVSVKGRFTISRDNAKNTVYLQMNSRKPEDTAVYYCNDEKYWWGYEYWGQGTQVTVSS”, which “polyreactivity (PSR sort gate)” value is on record?
A: high polyreactivity

Q: With “QLQLEESGGGLVQAGGSLRLSSAASGSIFYPNVMGWYRQAPGKERELVAAISWGGTSTNYADSVKGRFTISRDNAKNTVYLQMNSLKPEDTAVYYCAARTYWYGYNYWGQGTQVTVSS” as the sequence, how does the “polyreactivity (PSR sort gate)” value read?
A: high polyreactivity

Q: With “QLQLGESGRGGVQAGGSLRVSCAPSGLPFIYYAMGWYRPAPGKVRELVATISQSGSSTYYADSVKGRFTSSRDHATNTVDLQMNSLKPADTAVDYCNVSSVRWARFDYWGQGTQVTVSS” as the sequence, how does the “polyreactivity (PSR sort gate)” value read?
A: high polyreactivity

Q: For “QLQLQESGGGLVQADGSLRLSCAASGSIFGYYYMGWYRQAPGKDRELVATINICGITNYADSVKGRFTISRDNAKNTVYLQMNSLKPDDTAVYYCAADEYAQRDLGYWGQGTQVTVSS”, which “polyreactivity (PSR sort gate)” value is on record?
A: low polyreactivity

Q: Which “polyreactivity (PSR sort gate)” value does the source give for “QLQLQESGGGLVQAGGSLRLSCAASALITKVYSMGWYRQAPGKERELVAVINSNGGSTYYADSVKGRFTISRDNAQNTVYLQMNSLKPEDTAVYYCRYFRPYGYNYWGQGTQVTVSS” here?
A: high polyreactivity

Q: For “QLQLQESGGGLVQAGGSLRLSCAASGNISVTGFMGWYRQAPGKERELVASIGIGGTTYYADSVKGRFSISRDNAKNTVYLQMNSLKPEDTAVYYCAARYLYYAYSYWGQGTQVTVSS”, which “polyreactivity (PSR sort gate)” value is on record?
A: low polyreactivity

Q: With “QLQLVDSGGGLVQAGGSLRLSCAASGRIFSANAMGWYRQAPGKERELVAAIDGSDGITYYADSVKGRFTISRDNAKNTVYLQMNSLKPEDTAVYYCAAYLPYTTYRYRYDYWGQGNQVTVSS” as the sequence, how does the “polyreactivity (PSR sort gate)” value read?
A: high polyreactivity

Q: For “QLQLVESGGCLVQAGGSLRLSCAASGIIFVVNDMGWYRQAPGNARELVADISDSGGSTNYADSVKGRFTISRDNAKNSVYLQMNSLKPEDTAVYYCAADSADPTEYDYWGQGTQVTLSS”, which “polyreactivity (PSR sort gate)” value is on record?
A: low polyreactivity

Q: Which “polyreactivity (PSR sort gate)” value does the source give for “QLQLVESGGGLFQAGGSLRLSCAPSGFIFTAYTMGWYRQAHGKESELVAAIDSGGGTYYADYVKGRFTISRYNAKNTVYLQIHSLKPDDTAVYYCAADPAKSRAGDFDYWGQGTQVTVSS” here?
A: high polyreactivity

Q: Which “polyreactivity (PSR sort gate)” value does the source give for “QLQLVESGGGLVQAGASLRLSCAASGSILWPSARGWYRQAPGKERELVAAISTGGSTYYADSVKGRFTISRDNAKNTVYLQMNSLKPEDTAVYYCAAYVDYSVYFGGGYWGQGTQVTVSS” here?
A: low polyreactivity

Q: With “QLQLVESGGGLVQAGGSLRLICADSGRTFPSNTMGWYRQAPGKERELVAAITNSGGSTYYADSVKGRFTISRDNAKNTVYLQMNSLKPEDTAVYYCAKVVGAPYVEYDYWGQGTQVSVSS” as the sequence, how does the “polyreactivity (PSR sort gate)” value read?
A: low polyreactivity

Q: With “QLQLVESGGGLVQAGGSLRLSCAASGFIFPDYAMGWYRQAPGTERELVAAMRIRDGSTYYADSVKGRFTISRDNAKNTVYLQMNSLKPEAPAVYYCAVRSSYGYSDTNYIMYYWGQGTQVTVSS” as the sequence, how does the “polyreactivity (PSR sort gate)” value read?
A: low polyreactivity

Q: For “QLQLVESGGGLVQAGGSLRLSCAASGFTFRWNAMGWYRQAPGKERELLAAITNDDSTYYADSVKGRFTISRDNAKNSVYLQLNSLKPEDTAVYYCNARYGRYLDLDTGVALAGRGYWGQGTQVTVSS”, which “polyreactivity (PSR sort gate)” value is on record?
A: low polyreactivity

Q: For “QLQLVESGGGLVQAGGSLRLSCAASGFTFSAYAMGSYRQAPGKERELVAAISWSGGSTYYADSVKGRFTISRDNAKNTVYLQRNSLKPEDTAVYYCAADFHSYYRFDYWGQGTQVTVSS”, which “polyreactivity (PSR sort gate)” value is on record?
A: high polyreactivity

Q: Which “polyreactivity (PSR sort gate)” value does the source give for “QLQLVESGGGLVQAGGSLRLSCAASGITLYRYVMGWYRQAPGKERELVADISGRGTSTYYADSVKGRFTISRDNAKNTVYLQMNSLKPEDTSVYYCNAEYTKTGALVIPYTYYYAADYWGQGTQVTVSS” here?
A: low polyreactivity

Q: For “QLQLVESGGGLVQAGGSLRLSCAASGLIFPFYAMGWYRQAPGKERELVAAITSSGNTYYADSVKGLFTISRDNAKNTVYLQMNSLKPEDTAVYYCAADGSRIVKFDYWGQGTQVTVSS”, which “polyreactivity (PSR sort gate)” value is on record?
A: high polyreactivity

Q: Which “polyreactivity (PSR sort gate)” value does the source give for “QLQLVESGGGLVQAGGSLRLSCAASGRIFDGNTMGWYRQAPGKERELVAAITYSGGRTSYADSVKGRFTISRDNAKNTVYLQMISLKPEDTAVYYCNARVVTGSWYEGYYWGQGTQVTVSS” here?
A: low polyreactivity

Q: Which “polyreactivity (PSR sort gate)” value does the source give for “QLQLVESGGGLVQAGGSLRLSCAASGRIFRKNAMGWYRQAPGKERELVAAITSSGNTYYADSVKGRFTISRDNAKNTVYLQMNSLKTEDTAVYYCAARLKWLNRYGYDYWGQGTQVTVSS” here?
A: low polyreactivity

Q: With “QLQLVESGGGLVQAGGSLRLSCAASGRIFYPYAMGWYRQAPGKERELVPAIDYSDGNSYYADSVKGRFTISRDNAKNTVYLQMNSLKPEDTAVYYWAVEYTGAWIGVWYDYWGQGTQVTVSS” as the sequence, how does the “polyreactivity (PSR sort gate)” value read?
A: high polyreactivity

Q: For “QLQLVESGGGLVQAGGSLRLSCAASGRIFYVNAMGWYRQAPGKERELVASITDGSSTYYADSVKGRFTISRDNAKNTVYLQMNILKPEDTAVYYCAVRAAYWGAHYYYWGQGTQVTVSS”, which “polyreactivity (PSR sort gate)” value is on record?
A: high polyreactivity

Q: With “QLQLVESGGGLVQAGGSLRLSCAASGRTFDSYAMGWYRQPPGKERELVAAIYADSVKGRFTISRDIAKNTVYLQMYSLTPEDSAVYYCAAETYSGQTYLGEYDYWGQGTQVTVSS” as the sequence, how does the “polyreactivity (PSR sort gate)” value read?
A: low polyreactivity

Q: Which “polyreactivity (PSR sort gate)” value does the source give for “QLQLVESGGGLVQAGGSLRLSCAASGRTFQLYAMGWYRQAPGKERELVAAISYSGGSTYYADSVKGRFTISRDNAKNSVYLQTNSLKPEDTAVYYCAARPRSTRPSYYYRSAGYYWGQGTQVTLSS” here?
A: high polyreactivity

Q: For “QLQLVESGGGLVQAGGSLRLSCAASGSIFVVNAMGWYRQAPGKERELVAAISRGGITNYADSVKGRFTISRDNAKNTVYLQMNILKPEDTAVYYCNARGSRWVKPERDYWGQGTQVTVSS”, which “polyreactivity (PSR sort gate)” value is on record?
A: low polyreactivity

Q: For “QLQLVESGGGLVQAGGSLRLSCAASGSTFAANAMGRYRQAPGKERELVAASTSSGGSTYYADSVKGRFTISRDNAQNTVYLQMNSLKPEDTAVYYCAADRWYITLSIDATISYDYWGQGTQVTVSS”, which “polyreactivity (PSR sort gate)” value is on record?
A: low polyreactivity

Q: With “QLQLVESGGGLVQAGGSLRLSCAASGSTFTDYAMGWYRQAPGKERELVAAISWSGGSTYYADSVKGRFTISRDNAKNTVYLQMNSLKPEDTAVYYCAFRYHGYDYWGQGTQVTVSS” as the sequence, how does the “polyreactivity (PSR sort gate)” value read?
A: high polyreactivity

Q: For “QLQLVESGGGLVQAGGSLRLSCAASGSTIDHNAMGWYRQAPGKERELVATISSSGGSTYYADSVKGRFTISRDNAKNTVYFQMNSLKPEDTAGYDCNRYFRRGGRYPYNYWGQGTQVTVSS”, which “polyreactivity (PSR sort gate)” value is on record?
A: high polyreactivity

Q: With “QLQLVESGGGLVQAGGSLRLSCAASGSTYHINAMGWYRQAPGKERELVADINWSGGSTYYADSVKGRFTISRDNAKNTVYLQMNSLKPEDTAVYYCAADVGVFTYSPYDAGEHDYWGQGTQVTVSS” as the sequence, how does the “polyreactivity (PSR sort gate)” value read?
A: low polyreactivity

Q: Which “polyreactivity (PSR sort gate)” value does the source give for “QLQLVESGGGLVQAGGSLRLSCAASGYTFTSYTKGWYRQAPGKEWELVAAITWTGGRTYYADSVKGRFTISRDNAKNTVYLQMNSLKPEDTAVYFCAGSWRKVDYWGQGTQVTVSS” here?
A: high polyreactivity

Q: For “QLQLVESGGGLVQAGGSLRLSCAPSGLTFGRYAMGGYRHAPGKERELVAAITARVGRTYYADSVKGRFTISRDNEKNTVYLQMNSLKPEDTAVYYCAAGPSYFWYSHEKYDYWGQGTQVTVSS”, which “polyreactivity (PSR sort gate)” value is on record?
A: high polyreactivity

Q: Which “polyreactivity (PSR sort gate)” value does the source give for “QLQLVESGGGLVQAGGSLRLSCASTGSIFRPSPMGWYRPAPGKDRELVPDITWSGGSTYYADSVKGRFTISRDNAKNTVYLQMNSLKPEDTAVYYCAARFSYWARNSEYWGQGTQVTVSS” here?
A: low polyreactivity

— the nanobody polyreactivity screen of Harvey et al. (2022)
